Source: patent US8877192B2, “Rage fusion proteins and methods of use” (TransTech Pharma, LLC, priority 2004, dated 2014)

Columns and labels:
[1] = system: amyloid-beta (A-beta); test: Competition of a RAGE ligand with immobilized amyloid-beta for binding to the fusion protein; conditions: TTP-4000 initial solution diluted 1:10 or 1:30; RAGE ligand FAC 10 μM
Description: The fusion protein of the present invention may also be used to identify compounds having the ability to bind to RAGE.
Known RAGE ligands were coated onto the surface of Maxisorb plates at a concentration of 5 micrograms per well. Plates were incubated at 4° C. overnight. Following ligand incubation, plates were aspirated and a blocking buffer of 1% BSA in 50 mM imidizole buffer (pH 7.2) was added to the plates for 1 hour at room temperature. The plates were then aspirated and/or washed with wash buffer (20 mM Imidizole, 150 mM NaCl, 0.05% Tween-20, 5 mM CaCl2 and 5 mM MgCl2, pH 7.2). […] The fusion protein was added at increasing dilutions of the initial sample. The RAGE fusion protein was allowed to incubate with the immobilized ligand at 37° C. for one hour after which the plate was washed and assayed for binding of the fusion protein. Binding was detected by the addition of an immunodetection complex containing a monoclonal mouse anti-human IgG1 diluted 1:11,000 to a final assay concentration (FAC) of 21 ng/100 μL, a biotinylated goat anti-mouse IgG diluted 1:500, to a FAC of […], and an avidin-linked alkaline phosphatase. […] Binding of the complex to the immobilized fusion protein was quantified by measuring conversion of PNPP to para-nitrophenol (PNP) which was measured spectrophotometrically at 405 nm. […]

[2] = Pharmacokinetic profile of TTP-4000 after IV injection, plasma ELISA; assay type: in vivo, monkeys; conditions: single IV bolus 5 mg/kg, 2 animals, FIG. 11
Description: Following collection, the tubes were placed on wet ice (maximum 30 minutes) until centrifugation under refrigeration (at 2 to 8° C.) at 1500×g for 15 minutes. Each harvested plasma sample was then stored frozen (−70° C.±10° C.) until assayed for RAGE polypeptide using an ELISA at various time-points following the injection, as described in Example 6.
Initially, 50 uL of the RAGE specific monoclonal antibody 1HB1011 at a concentration of 10 ug/mL in 1×PBS pH 7.3 is coated on plates via overnight incubation. When ready for use, plates are washed three times with 300 uL of 1× Imidazole-Tween wash buffer and blocked with 1% BSA. […] The samples are allowed to incubate at room temperature for one hour. After incubation, the plates are plates are washed three times. A Goat Anti-human IgG1 1 (Sigma A3312) AP conjugate in 1×PBS with 1% BSA is added and allowed to incubate at room temperature for 1 hour. The plates are washed three times. Color was elucidated with paranitrophenylphosphate.

[3] = molecular target: T1, amphoterin (Ampho) (Homo sapiens, UniProt P09429); test: In vitro ligand binding (ELISA) to immobilized amphoterin; conditions: increasing dilutions of fusion protein; FIG. 7
T1 sequence (P09429 1-215): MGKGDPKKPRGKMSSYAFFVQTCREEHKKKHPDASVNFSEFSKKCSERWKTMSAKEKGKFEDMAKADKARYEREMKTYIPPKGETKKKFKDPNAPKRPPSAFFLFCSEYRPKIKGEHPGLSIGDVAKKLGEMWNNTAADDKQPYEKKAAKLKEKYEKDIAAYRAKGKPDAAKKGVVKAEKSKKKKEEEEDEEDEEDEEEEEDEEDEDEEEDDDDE
Description: For example, the RAGE fusion protein may be used in a binding assay to identify potential RAGE ligands. In one example embodiment of such a binding assay, a known RAGE ligand may coated onto a solid substrate (e.g., Maxisorb plates) at a concentration of about 5 micrograms per well, where each well contains a total volume of about 100 microliters (μL). The plates may be incubated at 4° C. overnight to allow the ligand to absorb. Alternatively, shorter incubation periods at higher temperature (e.g., room temperature) may be used. […] The fusion protein bound to the immobilized ligand may be detected in a variety of ways. […] The bound complex may be detected by adding the alkaline phosphatase substrate, para-nitrophenylphosphate (PNPP), and measuring conversion of PNPP to para-nitrophenol (PNP) as an increase in absorbance at 405 nm. […] Binding was detected by the addition of an immunodetection complex containing a monoclonal mouse anti-human IgG1 diluted 1:11,000 to a final assay concentration (FAC) of 21 ng/100 μL, a biotinylated goat anti-mouse IgG diluted 1:500, to a FAC of […], and an avidin-linked alkaline phosphatase. […] Binding of the complex to the immobilized fusion protein was quantified by measuring conversion of PNPP to para-nitrophenol (PNP) which was measured spectrophotometrically at 405 nm. […]

binding to immobilized amphoterin (absorbance at 405 nm) [3]: specifically interact
B1: TTP-4000: four domain RAGE fusion protein (SEQ ID NO: 32): human RAGE amino acids 1-251 linked to CH2 and CH3 domains of human IgG (protein)
chain: MAAGTAVGAWALVLSLWGAVVGAQNITARIGEPLVLKCKGAPKKPPQRLEWKLNTGRTEAWKVLSPQGGGPWDSVARVLPNGSLFLPAVGIQDEGIFRCQAMNRNGKETKSNYRVRVYQIPGKPEIVDSASELTAGVPNKVGTCVSEGSYPAGTLSWHLDGKPLVPNEKGVSVKEQTRRHPETGLFTLQSELMVTPARGGDPRPTFSCSFSPGLPRHRALRTAPIQPRVWEPVPLEEVQLVVEPEGGAVAPPSVFLFPPKPKDTLMISRTPEVTCVVVDVSHEDPEVKFNWYVDGVEVHNAKTKPREEQYNSTYRVVSVLTVLHQDWLNGKEYKCKVSNKALPAPIEKTISKAKGQPREPQVYTLPPSRDELTKNQVSLTCLVKGFYPSDIAVEWESNGQPENNYKTTPPVLDSDGSFFLYSKLTVDKSRWQQGNVFSCSVMHEALHNHYTQKSLSLSPGK
block of binding of fusion protein to immobilized amyloid-beta by the RAGE ligand [1]: completely inhibited
terminal half-life [2]: greater than 300 hours
